Target: T1, 161P2F10B variant 1 (human), on the cell surface (human, UniProt O14638 1-875)
T1 construct: Reported to be dimeric on the cell surface; also called 161P2F10B v.1; CD203c
Test: FACS on KU-812 cells, serial dilutions, one site binding fit

B1: Ha16-1.42 (antibody, V domains shown)
VH: EVQLVQSGAEVKKPGESLKISCKGSGYRFTSYWIGWVRQMPGKGLEWMGIIYPGDSDTRYSPSFQGQVTISADKSISTAYLQWSSLKASDTAMYYCARKDYYYYSMDVWGQGTTVTVSS
VL: QSALTQPASVSGSPGQSITISCTGTSSDVGRFNYVSWYQQRPGKAPKLMIYAVNIRPSGVSNRFSGSKSGNTASLTISGLQAEDEAGYYCSSYTSSSTLLVFGGGTKLTVLG
B1 showed a Kd of 0.02 nM.

Source: US20110020353A1 (published 2011)
